From article doi:10.1101/2021.09.16.460631 come the findings set out here.

What all share (experiment): EMSA
For series [1], the system named is Protamine 2, mature (WT P2) (Mus musculus (C57BL/6N background)).
The subject of series [2] is Protamine 1 (WT P1) (Mus musculus (C57BL/6N background)).
For series [3], the system named is Protamine 1 K49A (Mus musculus (C57BL/6N, P1 K49A/K49A knock-in)).
Series [4] deals with Protamine 2 precursor (pro P2) (Mus musculus (C57BL/6N, P1 K49A/K49A knock-in)).

For the substance ~300 bp linear DNA (280 bp PCR product), the Kd is 0.67 µM in series [1], 0.68 µM in series [2], 0.95 µM in series [3] and 0.84 µM in series [4].
